Experimental data: doi:10.1101/2020.01.30.926501 (bioRxiv, 2020)

Molecular target: the molecule itself
Assay: single-molecule GFP fluorescence intensity

B1: Kif14(768)-eGFP (domain or fragment, human, UniProt Q15058 1-768, looked up)
chain: MSLHSTHNRNNSGDILDIPSSQNSSSLNALTHSSRLKLHLKSDMSECENDDPLLRSAGKVRDINRTYVISASRKTADMPLTPNPVGRLALQRRTTRNKESSLLVSELEDTTEKTAETRLTLQRRAKTDSAEKWKTAEIDSVKMTLNVGGETENNGVSKESRTNVRIVNNAKNSFVASSVPLDEDPQVIEMMADKKYKETFSAPSRANENVALKYSSNRPPIASLSQTEVVRSGHLTTKPTQSKLDIKVLGTGNLYHRSIGKEIAKTSNKFGSLEKRTPTKCTTEHKLTTKCSLPQLKSPAPSILKNRMSNLQVKQRPKSSFLANKQERSAENTILPEEETVVQNTSAGKDPLKVENSQVTVAVRVRPFTKREKIEKASQVVFMSGKEITVEHPDTKQVYNFIYDVSFWSFDECHPHYASQTTVYEKLAAPLLERAFEGFNTCLFAYGQTGSGKSYTMMGFSEEPGIIPRFCEDLFSQVARKQTQEVSYHIEMSFFEVYNEKIHDLLVCKDENGQRKQPLRVREHPVYGPYVEALSMNIVSSYADIQSWLELGNKQRATAATGMNDKSSRSHSVFTLVMTQTKTEFVEGEEHDHRITSRINLIDLAGSERCSTAHTNGDRLKEGVSINKSLLTLGKVISALSEQANQRSVFIPYRESVLTWLLKESLGGNSKTAMIATISPAASNIEETLSTLRYANQARLIVNIAKVNEDMNAKLIRELKAEIAKLKAAQRNSRNIDPERYRLCRQEITSLRMKLHQQERDMAEMQRV
stoichiometry N: 2

B2: Kif5b-GFP (domain or fragment, human, UniProt P33176 1-905, looked up)
chain: MADLAECNIKVMCRFRPLNESEVNRGDKYIAKFQGEDTVVIASKPYAFDRVFQSSTSQEQVYNDCAKKIVKDVLEGYNGTIFAYGQTSSGKTHTMEGKLHDPEGMGIIPRIVQDIFNYIYSMDENLEFHIKVSYFEIYLDKIRDLLDVSKTNLSVHEDKNRVPYVKGCTERFVCSPDEVMDTIDEGKSNRHVAVTNMNEHSSRSHSIFLINVKQENTQTEQKLSGKLYLVDLAGSEKVSKTGAEGAVLDEAKNINKSLSALGNVISALAEGSTYVPYRDSKMTRILQDSLGGNCRTTIVICCSPSSYNESETKSTLLFGQRAKTIKNTVCVNVELTAEQWKKKYEKEKEKNKILRNTIQWLENELNRWRNGETVPIDEQFDKEKANLEAFTVDKDITLTNDKPATAIGVIGNFTDAERRKCEEEIAKLYKQLDDKDEEINQQSQLVEKLKTQMLDQEELLASTRRDQDNMQAELNRLQAENDASKEEVKEVLQALEELAVNYDQKSQEVEDKTKEYELLSDELNQKSATLASIDAELQKLKEMTNHQKKRAAEMMASLLKDLAEIGIAVGNNDVKQPEGTGMIDEEFTVARLYISKMKSEVKTMVKRCKQLESTQTESNKKMEENEKELAACQLRISQHEAKIKSLTEYLQNVEQKKRQLEESVDALSEELVQLRAQEKVHEMEKEHLNKVQTANEVKQAVEQQIQSHRETHQKQISSLRDEVEAKAKLITDLQDQNQKMMLEQERLRVEHEKLKATDQEKSRKLHELTVMQDRREQARQDLKGLEETVAKELQTLHNLRKLFVQDLATRVKKSAEIDSDDTGGSAAQKQKISFLENNLEQLTKVHKQLVRDNADLRCELPKLEKRLRATAERVKALESALKEAKENASRDRKRYQQEVDRIKEA
stoichiometry N: 2
